Source: article PMC5880107, “The Sequence-specific Peptide-binding Activity of the Protein Sulfide Isomerase AGR2 Directs Its Stable Binding to the Oncogenic Receptor EpCAM*^([image sbox.jpg])” (Molecular & Cellular Proteomics : MCP, 2018)
No end group written: not given here.

B1: His-AGR2 WT (mature AGR2, amino acids 21-175, N-terminal 6xHis tag; plasmid pmAGR2) (natural protein, human)
chain: RDTTVKPGAKKDTKDSRPKLPQTLSRGWGDQLIWTQTYEEALYKSKTSSKPLMIIHHLDECPHSQALKKVFAENKEIQKLAEQFVLLNLVYETTDKHLSPDGQYVPRIMFVDPSLTVRADITGRYSNRLYAYEPADTALLLDNMKKALKLLKTEL
notes: human AGR2, mature form without the ER leader, residues 21-175; also called wt-AGR2; wild-type AGR2; source: E. coli BL21-AI, purified (Ni-NTA agarose; gel filtration buffer exchange for HDX)

Key:
[1] = biological target: free consensus site containing peptides; assay: fluorescence polarisation; data not shown; AGR2 binding to free consensus site containing peptides in solution
[2] = biological target: T1, His-EpEX-CO, extracellular domain of EpCAM (amino acids 24-265), N-terminal 6xHis tag (human); assay: ELISA; His-EpCAM (EpEX, wt or Y251A) immobilised on polystyrene microtitre plate in 0.1 M NaHCO3 pH 8.6; AGR2 wt or mutants titrated in the mobile phase (0-1 μg), 1 h room temperature; without or with 1 mM DTT at the binding or the blocking step; detected with AGR2 antibody K47, RLU; details: both partners purified
T1 construct: human EpCAM extracellular domain (EpEX), amino acids 24-265 of NM_002354; For HDX the protein was eluted with 1 mM DTT in the final buffer; also called wt-EpCAM; His-EpCAM; source: E. coli BL21-DE3, solubilised with 7 M urea, purified (Ni-NTA agarose); not shown: His6 followed by a TEV protease site, N-terminal, kept
T1 chain: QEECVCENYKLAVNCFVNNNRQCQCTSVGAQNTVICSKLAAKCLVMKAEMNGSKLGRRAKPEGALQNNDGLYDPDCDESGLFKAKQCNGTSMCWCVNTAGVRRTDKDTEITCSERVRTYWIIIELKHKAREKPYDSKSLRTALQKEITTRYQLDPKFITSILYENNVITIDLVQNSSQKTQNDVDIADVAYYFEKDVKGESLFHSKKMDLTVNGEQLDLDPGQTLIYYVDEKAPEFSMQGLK

[3] = biological target: T2, biotinylated Peptide A4 (AGR2-binding peptide aptamer, HLPTTIYYGPPG) (also: biotinylated, end not given here); assay: ELISA; biotinylated peptide A4 (5 μg/well) captured on streptavidin-coated microtitre plate; wt or mutant AGR2 titrated in 3% BSA in PBS-T, 1 h room temperature; detected with AGR2 antibody K47, RLU; details: both partners purified
T2 construct: also called TTIYY-containing peptide; source: synthetic peptide (Chiron Mimotopes)
T2 peptide: HLPTTIYYGPPG

[4] = biological target: T3, 16mer AGR2-interacting peptide SGSG-HLPTTIYYGPPG; assay: HDX-MS; His-AGR2 WT 1 μM incubated 30 min with peptide 10 μM (1% DMSO), 10-fold dilution into deuterated buffer (20 mM Tris-HCl pD 7.6, 150 mM NaCl, 10 mM MgCl2), room temperature, 30 s to 3 h, pepsin; details: both partners purified
T3 construct: peptide A4 with an N-terminal SGSG stretch, as used for hydrogen-deuterium exchange; also called peptide A4 (in the HDX experiment); consensus site peptide A4; source: synthetic peptide (Chiron Mimotopes), stock 5 mg/ml in DMSO
T3 peptide: SGSGHLPTTIYYGPPG

[5] = biological target: B1; assay: ELISA; competition: biotinylated peptide A4 on the streptavidin-coated solid phase; fixed 1 μg AGR2 added with 100 ng of the indicated non-biotinylated synthetic peptide; AGR2 binding in RLU; details: both partners purified

In the case of B1, the Kd [1] is reported as 15 to 45 µM, the binding result [2] is reported as “binds” and the binding result [3] is reported as “binds”. B1: binds [4].

B2: His-AGR2 D132A (plasmid pmAGR2D132A) (natural protein, human)
chain: RDTTVKPGAKKDTKDSRPKLPQTLSRGWGDQLIWTQTYEEALYKSKTSSKPLMIIHHLDECPHSQALKKVFAENKEIQKLAEQFVLLNLVYETTDKHLSPDGQYVPRIMFVAPSLTVRADITGRYSNRLYAYEPADTALLLDNMKKALKLLKTEL
notes: human AGR2 residues 21-175; source: E. coli BL21-AI, purified (Ni-NTA agarose); not shown: His6 (leader as in m1), N-terminal, kept
B2: binds [2]; binds [3].

B3: His-AGR2 P133A (plasmid pmAGR2P133A) (natural protein, human)
chain: RDTTVKPGAKKDTKDSRPKLPQTLSRGWGDQLIWTQTYEEALYKSKTSSKPLMIIHHLDECPHSQALKKVFAENKEIQKLAEQFVLLNLVYETTDKHLSPDGQYVPRIMFVDASLTVRADITGRYSNRLYAYEPADTALLLDNMKKALKLLKTEL
notes: as for B2
B3: binds [2]; binds [3].

B4: His-AGR2 S134A (plasmid pmAGR2S134A) (natural protein, human)
chain: RDTTVKPGAKKDTKDSRPKLPQTLSRGWGDQLIWTQTYEEALYKSKTSSKPLMIIHHLDECPHSQALKKVFAENKEIQKLAEQFVLLNLVYETTDKHLSPDGQYVPRIMFVDPALTVRADITGRYSNRLYAYEPADTALLLDNMKKALKLLKTEL
notes: Ser at 69 as in m1; also called mutant AGR2^S134A; source: E. coli BL21-AI, purified (Ni-NTA agarose; gel filtration buffer exchange for HDX)
B4: binds [2]; binds [3].

B5: wt-peptide PTTIYY (non-biotinylated hexapeptide) (peptide)
peptide: PTTIYY
notes: also called PTTIYY hexapeptide; source: synthetic peptide
B5: binds [5].

B6: PTTIYY hexapeptide with Isoleucine at position 4 changed to Leucine (peptide)
peptide: PTTLYY
notes: also called PTTLYY; source: synthetic peptide (mutational scan library)
B6: binds [5].

B7: PTTIYY hexapeptide with Tyrosine at position 5 changed to Phenylalanine (peptide)
peptide: PTTIFY
notes: also called PTTIFY; source: synthetic peptide (mutational scan library)
B7: binds [5].

B8: PTTIYY hexapeptide with Tyrosine at position 5 changed to Tryptophan (peptide)
peptide: PTTIWY
notes: also called PTTIWY; source: synthetic peptide (mutational scan library)
B8: binds [5].

B9: PTTIYY hexapeptide with Tyrosine at position 6 changed to Phenylalanine (peptide)
peptide: PTTIYF
notes: also called PTTIYF; source: synthetic peptide (mutational scan library)
B9: binds [5].

B10: PTTIYY hexapeptide with Tyrosine at position 6 changed to Tryptophan (peptide)
peptide: PTTIYW
notes: also called PTTIYW; source: synthetic peptide (mutational scan library)
B10: binds [5].

B11: PTTIYY hexapeptide with the Y-A mutation at position 6 (peptide)
peptide: PTTIYA
notes: also called PTTIYA; source: synthetic peptide (mutational scan library)
B11: binds [5].
